In article PMC4044012, “Genome-Based Discovery of a Novel Membrane-Bound 1,6-Dihydroxyphenazine Prenyltransferase from a Marine Actinomycete” (PLoS ONE, 2014):

How the values were obtained:
Experiment in all cases: prenyltransferase assay with E. coli membrane fraction, HPLC-UV product quantification
[1] = biological target: T1, Mpz10 (Streptomyces sp. SpC080624SC-11, UniProt A0A068CM06); type: biochemical; conditions: read-out: apparent Km; DMAPP co-substrate, 10 mM MgCl2, 50 mM Tris-HCl pH 8.1, 30°C
T1 construct: NcoI/EcoRI in pET-28a(+) (pPH23), apparently untagged; E. coli Rosetta2(DE3)pLysS membrane fraction
T1 sequence (A0A068CM06 1-331): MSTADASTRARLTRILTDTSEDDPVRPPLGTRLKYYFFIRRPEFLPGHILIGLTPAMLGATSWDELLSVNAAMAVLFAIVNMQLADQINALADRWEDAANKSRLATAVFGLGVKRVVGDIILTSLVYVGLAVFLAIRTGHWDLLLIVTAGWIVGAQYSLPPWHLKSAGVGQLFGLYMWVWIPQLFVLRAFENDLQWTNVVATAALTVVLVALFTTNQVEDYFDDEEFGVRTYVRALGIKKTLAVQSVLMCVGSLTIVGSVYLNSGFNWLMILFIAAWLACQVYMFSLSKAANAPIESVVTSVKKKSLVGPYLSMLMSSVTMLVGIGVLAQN

[2] = substrate: CC(C)=CCOP(=O)(O)OP(=O)(O)O; type: biochemical, Streptomyces sp. SpC080624SC-11; conditions: 0.2 mM 1,6-dihydroxyphenazine constant, 10 mM MgCl2, 50 mM Tris-HCl pH 8.1, 30°C
[3] = substrate: Oc1cccc2nc3c(O)cccc3nc12; type: biochemical, Streptomyces sp. SpC080624SC-11; conditions: 0.5 mM DMAPP constant, 10 mM MgCl2, 50 mM Tris-HCl pH 8.1, 30°C

`Oc1cccc2nc3ccccc3nc12` [1-hydroxyphenazine] was tested, and the Km [1] was 9.8 µM.

B1: Mpz10 (Streptomyces sp. SpC080624SC-11) (protein)
chain: T1 sequence (A0A068CM06 1-331)
notes: NcoI/EcoRI in pET-28a(+) (pPH23), apparently untagged; E. coli Rosetta2(DE3)pLysS membrane fraction
In the case of B1, the Km [2] is reported as 153 µM and the Km [3] is reported as 53 µM.
